In data set [1] the test system is M-pol (MuLV RT polymerase domain) (MuLV). Put plainly: EMSA. The conditions noted are these: 50 mM Tris-HCl pH 7.8, 60 mM KCl, 1 mM DTT, 0.01% NP40, 10% glycerol; 5 nM labeled template-primer, 10 uL; 6% native gel in Tris-borate pH 8.2 run at 4 C ….
Data set [2] deals with chimeric HIV-1 RT (HIV-1 RT polymerase domain + MuLV RT RNase H domain) (HIV-1 / MuLV chimera). Put plainly: EMSA. Particulars: 50 mM Tris-HCl pH 7.8, 60 mM KCl, 1 mM DTT, 0.01% NP40, 10% glycerol; 5 nM labeled template-primer, 10 uL; 6% native gel in Tris-borate pH 8.2 run at 4 C ….
The subject of data set [3] is chimeric MuLV RT (MHCI RT; MuLV RT polymerase domain + HIV-1 RT RNase H domain) (MuLV / HIV-1 chimera). Put plainly: EMSA. Particulars: 50 mM Tris-HCl pH 7.8, 60 mM KCl, 1 mM DTT, 0.01% NP40, 10% glycerol; 5 nM labeled template-primer, 10 uL; 6% native gel in Tris-borate pH 8.2 run at 4 C ….
For data set [4], the system named is wild-type HIV-1 RT (p66/66) (HIV-1). Put plainly: EMSA. Particulars: 50 mM Tris-HCl pH 7.8, 60 mM KCl, 1 mM DTT, 0.01% NP40, 10% glycerol; 5 nM labeled template-primer, 10 uL; 6% native gel in Tris-borate pH 8.2 run at 4 C ….
The next data set deals with wild-type MuLV RT (MuLV). Put plainly: EMSA. The conditions noted are these: 50 mM Tris-HCl pH 7.8, 60 mM KCl, 1 mM DTT, 0.01% NP40, 10% glycerol; 5 nM labeled template-primer, 10 uL; 6% native gel in Tris-borate pH 8.2 run at 4 C ….
For data set [5], the target named is wild-type p66/66 HIV-1 RT (human immunodeficiency virus type 1 reverse transcriptase) (human immunodeficiency virus type 1). Put plainly: glycerol gradient ultracentrifugation; 50 micrograms of each enzyme alone on 5 ml of 10%-30% linear glycerol gradient in 50 mM Tris HCl pH 8.0, 400 mM NaCl; 48,000 rpm, 20-24 h, SW 50.1 rotor; fractions from the bottom analysed by SDS-PAGE and Coomassie blue.

The values below come from PMC2765437.

pKd: −log10 of the molar value.

As for “49-mer DNA template / 17-mer PBS DNA primer”, the pKd in data set [1] is 8.92; in data set [2], 8.82; in data set [3] it was 8.48; in data set [4], 8.49; with wild-type MuLV RT (MuLV), 8.57.
The substance “wild-type p66/66 HIV-1 RT (human immunodeficiency virus type 1 reverse transcriptase) (enzyme)” returned a stoichiometry N in data set [5] of 2.
